Measurements from the supplement of paper PMC10567573.

B1: NCF4 (parent)
chain: FGPDSKSSALACTLPTLPAKVYVG

Variants of: B1
Assay: protein stability index of a GFP-peptide fusion (GPS, HEK-293T) (PSI 1-6); higher = more stable
Details: c terminus: a fixed tail appended
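Also: lentivirally expressed fusions sorted by FACS into six bins by GFP to DsRed ratio, PSI derived from sequencing read proportions per bin multiplied by bin number.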

Row | Variant | protein stability index
1 | FGPMSKSSALACTLPTLPAKVYVG | 2.19
2 | FGPWSKSSALACTLPTLPAKVYVG | 1.18
3 | FGPTSKSSALACTLPTLPAKVYVG | 2.14
4 | FGPLSKSSALACTLPTLPAKVYVG | 2.15
5 | FGPPSKSSALACTLPTLPAKVYVG | 2.23
6 | FGPNSKSSALACTLPTLPAKVYVG | 1.84
7 | FGPGSKSSALACTLPTLPAKVYVG | 2.1
8 | FGPVSKSSALACTLPTLPAKVYVG | 1.75
9 | FGPYSKSSALACTLPTLPAKVYVG | 1.8
10 | FGPQSKSSALACTLPTLPAKVYVG | 2.26
11 | FGPSSKSSALACTLPTLPAKVYVG | 2.04
12 | FGPFSKSSALACTLPTLPAKVYVG | 1.58
13 | FGPRSKSSALACTLPTLPAKVYVG | 2.1
14 | FGPHSKSSALACTLPTLPAKVYVG | 1.18
15 | FGPCSKSSALACTLPTLPAKVYVG | 2.11
16 | FGPISKSSALACTLPTLPAKVYVG | 2.15
17 | FGPESKSSALACTLPTLPAKVYVG | 2.05
18 | FGPKSKSSALACTLPTLPAKVYVG | 2.48
19 | FGPASKSSALACTLPTLPAKVYVG | 1.82
20 | FGPDSHSSALACTLPTLPAKVYVG | 2.29
21 | FGPDSESSALACTLPTLPAKVYVG | 2.54
22 | FGPDSCSSALACTLPTLPAKVYVG | 2.02
23 | FGPDSASSALACTLPTLPAKVYVG | 1.95
24 | FGPDSISSALACTLPTLPAKVYVG | 1.95

Row | Variant | protein stability index
25 | FGPDSLSSALACTLPTLPAKVYVG | 1.63
26 | FGPDSNSSALACTLPTLPAKVYVG | 2.8
27 | FGPDSFSSALACTLPTLPAKVYVG | 1.53
28 | FGPDSDSSALACTLPTLPAKVYVG | 3.17
29 | FGPDSGSSALACTLPTLPAKVYVG | 2.48
30 | FGPDSMSSALACTLPTLPAKVYVG | 2.89
31 | FGDDSKSSALACTLPTLPAKVYVG | 2.19
32 | FGIDSKSSALACTLPTLPAKVYVG | 2.13
33 | FGGDSKSSALACTLPTLPAKVYVG | 2.07
34 | FGADSKSSALACTLPTLPAKVYVG | 2.45
35 | FGQDSKSSALACTLPTLPAKVYVG | 3.09
36 | FGMDSKSSALACTLPTLPAKVYVG | 2.01
37 | FGKDSKSSALACTLPTLPAKVYVG | 2.56
38 | FGTDSKSSALACTLPTLPAKVYVG | 2.25
39 | FGVDSKSSALACTLPTLPAKVYVG | 1.86
40 | FGHDSKSSALACTLPTLPAKVYVG | 2.46
41 | FGFDSKSSALACTLPTLPAKVYVG | 1.72
42 | FGEDSKSSALACTLPTLPAKVYVG | 3.02
43 | FGYDSKSSALACTLPTLPAKVYVG | 1.73
44 | FGCDSKSSALACTLPTLPAKVYVG | 2.04
45 | FGSDSKSSALACTLPTLPAKVYVG | 2.35
46 | FGLDSKSSALACTLPTLPAKVYVG | 2.17
47 | FGNDSKSSALACTLPTLPAKVYVG | 2.21
48 | FGWDSKSSALACTLPTLPAKVYVG | 1.46

Row | Variant | protein stability index
49 | FGRDSKSSALACTLPTLPAKVYVG | 2.35
50 | FAPDSKSSALACTLPTLPAKVYVG | 2.57
51 | FMPDSKSSALACTLPTLPAKVYVG | 1.84
52 | FQPDSKSSALACTLPTLPAKVYVG | 1.49
53 | FCPDSKSSALACTLPTLPAKVYVG | 1.12
54 | FIPDSKSSALACTLPTLPAKVYVG | 1.96
55 | FPPDSKSSALACTLPTLPAKVYVG | 2.59
56 | FYPDSKSSALACTLPTLPAKVYVG | 2.22
57 | FWPDSKSSALACTLPTLPAKVYVG | 1.65
58 | FNPDSKSSALACTLPTLPAKVYVG | 1.77
59 | FDPDSKSSALACTLPTLPAKVYVG | 3.1
60 | FRPDSKSSALACTLPTLPAKVYVG | 2.6
61 | FFPDSKSSALACTLPTLPAKVYVG | 3.06
62 | FLPDSKSSALACTLPTLPAKVYVG | 2.06
63 | FEPDSKSSALACTLPTLPAKVYVG | 3.43
64 | FKPDSKSSALACTLPTLPAKVYVG | 3.02
65 | FSPDSKSSALACTLPTLPAKVYVG | 2.34
66 | FTPDSKSSALACTLPTLPAKVYVG | 2.06
67 | FHPDSKSSALACTLPTLPAKVYVG | 1.61
68 | FVPDSKSSALACTLPTLPAKVYVG | 3.38
69 | FGPDLKSSALACTLPTLPAKVYVG | 2.12
70 | FGPDVKSSALACTLPTLPAKVYVG | 2.46
71 | FGPDPKSSALACTLPTLPAKVYVG | 2.75
72 | FGPDTKSSALACTLPTLPAKVYVG | 2.32

Row | Variant | protein stability index
73 | FGPDHKSSALACTLPTLPAKVYVG | 2.36
74 | FGPDMKSSALACTLPTLPAKVYVG | 1.89
75 | FGPDEKSSALACTLPTLPAKVYVG | 3.13
76 | FGPDQKSSALACTLPTLPAKVYVG | 3.47
77 | FGPDDKSSALACTLPTLPAKVYVG | 3.16
78 | FGPDNKSSALACTLPTLPAKVYVG | 2.65
79 | FGPDIKSSALACTLPTLPAKVYVG | 2.41
80 | FGPDRKSSALACTLPTLPAKVYVG | 2.2
81 | FGPDYKSSALACTLPTLPAKVYVG | 1.51
82 | FGPDCKSSALACTLPTLPAKVYVG | 1.8
83 | FGPDAKSSALACTLPTLPAKVYVG | 2.34
84 | FGPDKKSSALACTLPTLPAKVYVG | 2.28
85 | RGPDSKSSALACTLPTLPAKVYVG | 2.54
86 | NGPDSKSSALACTLPTLPAKVYVG | 3.69
87 | VGPDSKSSALACTLPTLPAKVYVG | 2.92
88 | YGPDSKSSALACTLPTLPAKVYVG | 2.7
89 | MGPDSKSSALACTLPTLPAKVYVG | 2.68
90 | PGPDSKSSALACTLPTLPAKVYVG | 3.32
91 | SGPDSKSSALACTLPTLPAKVYVG | 3.64
92 | TGPDSKSSALACTLPTLPAKVYVG | 3.47
93 | QGPDSKSSALACTLPTLPAKVYVG | 3.02
94 | WGPDSKSSALACTLPTLPAKVYVG | 2.63
